Test results from patent US20120141451A1.

What was measured:
[1] = molecular target: rat NCAM F3 modules 1-2 (rat) (UniProt P13596); assay: SPR (BIAcore2000), soluble FGFR Ig2 on immobilized NCAM F3 modules 1-2
[2] = molecular target: Ig2 module of mouse FGFR1 (IIIc isoform) (mouse) (UniProt P16092); assay: SPR (BIAcore2000), soluble NCAM F3 modules 1-2 on immobilized FGFR Ig2
Chain of Ig2 module of mouse FGFR1 (IIIc isoform) (mouse) (P16092 other isoform, or with tags, fused parts or gaps limits assumed, form in doubt): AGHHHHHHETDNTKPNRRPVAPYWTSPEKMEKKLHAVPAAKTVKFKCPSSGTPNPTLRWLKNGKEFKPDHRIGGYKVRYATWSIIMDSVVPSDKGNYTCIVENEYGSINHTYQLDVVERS

Chain of rat NCAM F3 modules 1-2 (rat) (P13596 other isoform, or with tags, fused parts or gaps limits assumed, form in doubt): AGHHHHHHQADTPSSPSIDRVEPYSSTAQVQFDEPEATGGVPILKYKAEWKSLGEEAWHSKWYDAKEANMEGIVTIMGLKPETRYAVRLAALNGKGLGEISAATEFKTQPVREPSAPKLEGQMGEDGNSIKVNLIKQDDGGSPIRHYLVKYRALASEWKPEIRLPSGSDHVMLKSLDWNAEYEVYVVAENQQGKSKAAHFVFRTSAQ

| Kd [1] | Kd [2] | Substance |
| --- | --- | --- |
| 35 µM |  | Ig2 module of mouse FGFR1 (IIIc isoform) (from UniProt P16092 140-251) (receptor) |
|  | 12 µM | rat NCAM F3 modules 1-2 (from UniProt P13596 507-705) (receptor) |
